Results on 14 substances are retold here after publication PMC6005513.

Assay [1] has as its target WMHBV myr-preS1-Al633-peptide. Put plainly: Al633 fluorescence of labelled myr-preS1-peptide bound to transfected HEK293 cells. The conditions noted are these: 10 nM peptide, 20 min, 37°C, read off a plot.
In assay [2] the target is HBV myr-preS1-Al633-peptide (UniProt P03138). Described as above. As to conditions: 10 nM peptide, 20 min, 37°C, read off a plot.

With “Callithrix jacchus (common marmoset) Ntcp, wild type (from UniProt F7HA36) G158R”, the response in assay [1] (parent: est. 20000) came out at 11000 rfu.

Regarding “Callithrix jacchus (common marmoset) Ntcp, wild type (from UniProt F7HA36) G158S”, the response in assay [1] (parent: est. 20000) is 14000 rfu.

For “Chlorocebus aethiops (grivet) Ntcp, wild type (from UniProt A0A0U3VGV8) R158G”, the response in assay [1] (parent: est. 11000) is 20000 rfu.

Consider “Macaca fascicularis (crab-eating macaque) Ntcp, wild type R158G”, for which the response amounted to 18000 rfu in assay [1] (parent: est. 11000) and 25000 rfu in assay [2] (parent: est. 11000).

Consider “Macaca mulatta (rhesus macaque) Ntcp, wild type (from UniProt A0A0U4DKK4) R158G”, for which the response in assay [1] (parent: est. 11000) stood at 20000 rfu.

For “Saguinus oedipus (cotton-top tamarin) Ntcp, wild type (from UniProt A0A0U4EKU3) S158G”, the response in assay [1] (parent: est. 11000) stood at 15000 rfu.

For the substance “Saimiri sciureus (common squirrel monkey) Ntcp, wild type G158R”, the response was determined as 11000 rfu in assay [1] (parent: est. 18000) and 10000 rfu in assay [2] (parent: est. 18000).

As to “Saimiri sciureus (common squirrel monkey) Ntcp, wild type G158S”, the response was 10000 rfu in assay [1] (parent: est. 18000) and 11000 rfu in assay [2] (parent: est. 18000).

Turning to “Semnopithecus sp. (langur) Ntcp, wild type R158G”, the response in assay [1] (parent: est. 10000) came out at 21000 rfu; in assay [2] (parent: est. 11000) it was 28000 rfu.

Take “human Na+/taurocholate co-transporting polypeptide (NTCP), wild type (from UniProt Q14973) G158D”: in assay [1] (parent: est. 24000), the response worked out at 12000 rfu.

“human Na+/taurocholate co-transporting polypeptide (NTCP), wild type (from UniProt Q14973) G158N”: the response in assay [1] (parent: est. 24000) is 12000 rfu.

Turning to “human Na+/taurocholate co-transporting polypeptide (NTCP), wild type (from UniProt Q14973) G158R”, the response in assay [1] (parent: est. 24000) amounted to 11000 rfu.

With “human Na+/taurocholate co-transporting polypeptide (NTCP), wild type (from UniProt Q14973) G158S”, in assay [1] (parent: est. 24000), the response turned out to be 19000 rfu.

Take “human Na+/taurocholate co-transporting polypeptide (NTCP), wild type (from UniProt Q14973) G158V”: the response in assay [1] (parent: est. 24000) stood at 10000 rfu.
